In US20140348819A1, “Methods of Treating Cancer” (Dana-Farber Cancer Institute, Inc., priority 2011, published 2014):

System: six V600E BRAF melanoma cell lines
Test: Screening of recombinant RTK ligands for ability to confer resistance to BRAFi (PLX4720) or MEKi (PD184352) (Table 4)
Type: cell-based, human
Summary of the method: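 Six V600E BRAF melanoma lines treated with PLX4720 or PD184352 after addition of 22 recombinant RTK ligands, scored for drug resistance. Activation of selected RTKs confirmed by western blotting and high-throughput tyrosine kinase phosphorylation profiling.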

B1: MSP (protein, UniProt P26927 19-711, looked up)
Hepatocyte growth factor-like …: QRSPLNDFQVLRGTELQHLLHAVVPGPWQEDVADAEECAGRCGPLMDCRAFHYNVSSHGCQLLPWTQHSPHTRLRRSGRCDLFQKKDYVRTCIMNNGVGYRGTMATTVGGLPCQAWSHKFPNDHKYTPTLRNGLEENFCRNPDGDPGGPWCYTTDPAVRFQSCGIKSCREAACVWCNGEEYRGAVDRTESGRECQRWDLQHPHQHPFEPGKFLDQGLDDNYCRNPDGSERPWCYTTDPQIEREFCDLPRCGSEAQPRQEATTVSCFRGKGEGYRGTANTTTAGVPCQRWDAQIPHQHRFTPEKYACKDLRENFCRNPDGSEAPWCFTLRPGMRAAFCYQIRRCTDDVRPQDCYHGAGEQYRGTVSKTRKGVQCQRWSAETPHKPQFTFTSEPHAQLEENFCRNPDGDSHGPWCYTMDPRTPFDYCALRRCADDQPPSILDPPDQVQFEKCGKRVDRLDQRRSKLRVVGGHPGNSPWTVSLRNRQGQHFCGGSLVKEQWILTARQCFSSCHMPLTGYEVWLGTLFQNPQHGEPSLQRVPVAKMVCGPSGSQLVLLKLERSVTLNQRVALICLPPEWYVVPPGTKCEIAGWGETKGTGNDTVLNVALLNVISNQECNIKHRGRVRESEMCTEGLLAPVGACEGDYGGPLACFTHNCWVLEGIIIPNRVCARSRWPAVFTRVSVFVDWIHKVMRLG
- ability of recombinant RTK ligand to confer resistance (A2058, PD184352 - 1 uM, ligand 0.4 ng/ml): 1.06
- ability of recombinant RTK ligand to confer resistance (A2058, PD184352 - 1 uM, ligand 1.6 ng/ml): 0.98
- ability of recombinant RTK ligand to confer resistance (A2058, PD184352 - 1 uM, ligand 6.25 ng/ml): 1.03
- ability of recombinant RTK ligand to confer resistance (A2058, PD184352 - 1 uM, ligand 25 ng/ml): 1.09
- ability of recombinant RTK ligand to confer resistance (A2058, PD184352 - 1 uM, ligand 100 ng/ml): 1.05
- ability of recombinant RTK ligand to confer resistance (A2058, PLX4720 - 2 uM, ligand 0.4 ng/ml): 1.04
- ability of recombinant RTK ligand to confer resistance (A2058, PLX4720 - 2 uM, ligand 1.6 ng/ml): 1.02
- ability of recombinant RTK ligand to confer resistance (A2058, PLX4720 - 2 uM, ligand 6.25 ng/ml): 1.05
- ability of recombinant RTK ligand to confer resistance (A2058, PLX4720 - 2 uM, ligand 25 ng/ml): 1.04
- ability of recombinant RTK ligand to confer resistance (A2058, PLX4720 - 2 uM, ligand 100 ng/ml): 1.05
- ability of recombinant RTK ligand to confer resistance (C32, PD184352 - 1 uM, ligand 0.4 ng/ml): 0.99
- ability of recombinant RTK ligand to confer resistance (C32, PD184352 - 1 uM, ligand 1.6 ng/ml): 1.02
- ability of recombinant RTK ligand to confer resistance (C32, PD184352 - 1 uM, ligand 6.25 ng/ml): 1.07
- ability of recombinant RTK ligand to confer resistance (C32, PD184352 - 1 uM, ligand 25 ng/ml): 1.01
- ability of recombinant RTK ligand to confer resistance (C32, PD184352 - 1 uM, ligand 100 ng/ml): 0.95
- ability of recombinant RTK ligand to confer resistance (C32, PLX4720 - 2 uM, ligand 0.4 ng/ml): 1.07
- ability of recombinant RTK ligand to confer resistance (C32, PLX4720 - 2 uM, ligand 1.6 ng/ml): 1.01
- ability of recombinant RTK ligand to confer resistance (C32, PLX4720 - 2 uM, ligand 6.25 ng/ml): 1.04
- ability of recombinant RTK ligand to confer resistance (C32, PLX4720 - 2 uM, ligand 25 ng/ml): 1.02
- ability of recombinant RTK ligand to confer resistance (C32, PLX4720 - 2 uM, ligand 100 ng/ml): 0.95
- ability of recombinant RTK ligand to confer resistance (Colo 829, PD184352 - 1 uM, ligand 0.4 ng/ml): 1.03
- ability of recombinant RTK ligand to confer resistance (Colo 829, PD184352 - 1 uM, ligand 1.6 ng/ml): 0.98
- ability of recombinant RTK ligand to confer resistance (Colo 829, PD184352 - 1 uM, ligand 6.25 ng/ml): 1.01
- ability of recombinant RTK ligand to confer resistance (Colo 829, PD184352 - 1 uM, ligand 25 ng/ml): 0.96
- ability of recombinant RTK ligand to confer resistance (Colo 829, PD184352 - 1 uM, ligand 100 ng/ml): 0.93
- ability of recombinant RTK ligand to confer resistance (Colo 829, PLX4720 - 2 uM, ligand 0.4 ng/ml): 0.98
- ability of recombinant RTK ligand to confer resistance (Colo 829, PLX4720 - 2 uM, ligand 1.6 ng/ml): 0.94
- ability of recombinant RTK ligand to confer resistance (Colo 829, PLX4720 - 2 uM, ligand 6.25 ng/ml): 1.03
- ability of recombinant RTK ligand to confer resistance (Colo 829, PLX4720 - 2 uM, ligand 25 ng/ml): 0.97
- ability of recombinant RTK ligand to confer resistance (Colo 829, PLX4720 - 2 uM, ligand 100 ng/ml): 0.99
- ability of recombinant RTK ligand to confer resistance (G-361, PD184352 - 1 uM, ligand 0.4 ng/ml): 1.04
- ability of recombinant RTK ligand to confer resistance (G-361, PD184352 - 1 uM, ligand 1.6 ng/ml): 0.96
- ability of recombinant RTK ligand to confer resistance (G-361, PD184352 - 1 uM, ligand 6.25 ng/ml): 0.92
- ability of recombinant RTK ligand to confer resistance (G-361, PD184352 - 1 uM, ligand 25 ng/ml): 0.98
- ability of recombinant RTK ligand to confer resistance (G-361, PD184352 - 1 uM, ligand 100 ng/ml): 0.90
- ability of recombinant RTK ligand to confer resistance (G-361, PLX4720 - 2 uM, ligand 0.4 ng/ml): 1.00
- ability of recombinant RTK ligand to confer resistance (G-361, PLX4720 - 2 uM, ligand 1.6 ng/ml): 0.89
- ability of recombinant RTK ligand to confer resistance (G-361, PLX4720 - 2 uM, ligand 6.25 ng/ml): 0.91
- ability of recombinant RTK ligand to confer resistance (G-361, PLX4720 - 2 uM, ligand 25 ng/ml): 0.93
- ability of recombinant RTK ligand to confer resistance (G-361, PLX4720 - 2 uM, ligand 100 ng/ml): 0.88
- ability of recombinant RTK ligand to confer resistance (SK-MEL-5, PD184352 - 1 uM, ligand 0.4 ng/ml): 0.94
- ability of recombinant RTK ligand to confer resistance (SK-MEL-5, PD184352 - 1 uM, ligand 1.6 ng/ml): 1.11
- ability of recombinant RTK ligand to confer resistance (SK-MEL-5, PD184352 - 1 uM, ligand 6.25 ng/ml): 1.00
- ability of recombinant RTK ligand to confer resistance (SK-MEL-5, PD184352 - 1 uM, ligand 25 ng/ml): 0.99
- ability of recombinant RTK ligand to confer resistance (SK-MEL-5, PD184352 - 1 uM, ligand 100 ng/ml): 1.11
- ability of recombinant RTK ligand to confer resistance (SK-MEL-5, PLX4720 - 2 uM, ligand 0.4 ng/ml): 0.87
- ability of recombinant RTK ligand to confer resistance (SK-MEL-5, PLX4720 - 2 uM, ligand 1.6 ng/ml): 1.03
- ability of recombinant RTK ligand to confer resistance (SK-MEL-5, PLX4720 - 2 uM, ligand 6.25 ng/ml): 0.98
- ability of recombinant RTK ligand to confer resistance (SK-MEL-5, PLX4720 - 2 uM, ligand 25 ng/ml): 1.01
- ability of recombinant RTK ligand to confer resistance (SK-MEL-5, PLX4720 - 2 uM, ligand 100 ng/ml): 1.12
- ability of recombinant RTK ligand to confer resistance (SK-MEL-28, PD184352 - 1 uM, ligand 0.4 ng/ml): 0.95
- ability of recombinant RTK ligand to confer resistance (SK-MEL-28, PD184352 - 1 uM, ligand 1.6 ng/ml): 0.94
- ability of recombinant RTK ligand to confer resistance (SK-MEL-28, PD184352 - 1 uM, ligand 6.25 ng/ml): 1.00
- ability of recombinant RTK ligand to confer resistance (SK-MEL-28, PD184352 - 1 uM, ligand 25 ng/ml): 1.01
- ability of recombinant RTK ligand to confer resistance (SK-MEL-28, PD184352 - 1 uM, ligand 100 ng/ml): 0.97
- ability of recombinant RTK ligand to confer resistance (SK-MEL-28, PLX4720 - 2 uM, ligand 0.4 ng/ml): 0.92
- ability of recombinant RTK ligand to confer resistance (SK-MEL-28, PLX4720 - 2 uM, ligand 1.6 ng/ml): 1.02
- ability of recombinant RTK ligand to confer resistance (SK-MEL-28, PLX4720 - 2 uM, ligand 6.25 ng/ml): 1.00
- ability of recombinant RTK ligand to confer resistance (SK-MEL-28, PLX4720 - 2 uM, ligand 25 ng/ml): 0.97
- ability of recombinant RTK ligand to confer resistance (SK-MEL-28, PLX4720 - 2 uM, ligand 100 ng/ml): 0.93
